Values quoted from earlier work as cited in article PMC5828769.

Assays:
[1] = target: angiogenin (Homo sapiens) (UniProt P03950)
[2] = target: actin (AngBP) (Bos taurus) (UniProt P60712)

Sequence of UniProt P03950 (P03950 25-147): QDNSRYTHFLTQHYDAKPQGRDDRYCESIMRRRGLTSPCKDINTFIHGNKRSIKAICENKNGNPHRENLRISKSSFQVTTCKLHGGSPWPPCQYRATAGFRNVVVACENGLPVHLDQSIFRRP

Row | Ki [1] | Kd [2] | Substance
1 | < 0.001 pM |  | PRI (ribonuclease inhibitor) (from UniProt P13489)
2 |  | 500 pM | angiogenin (from UniProt P10152)
